Data on seven molecules can be found in patent publication US8580556B2, “Sulfonylurea-responsive repressor proteins” (E. I. du Pont de Nemours and Company, priority 2008, dated 2013).

B1: L1-7: library L1 hit, sulfonylurea-responsive TetR(B) variant, SEQ ID NO: 4 (protein)
chain: MGSRLDKSKVINSALELLNEVGIEGLTTRKLAQKLGVEQPTLYWHVKNKRALLDALAIEMLDRHNTHFCPLEGESWQDFLRNNAKSWRCALLSHRDGAKVVLGTAITEKQYETHENPLAFLCQQGFSLENALYAIAAVRRFTLGCVLVDQERQVAKEERETPTTDSMPPLLRQASELQDHQGAEPAFLFGLELIICGLEKQLKCERGS
modifications: Sulfonylurea responsive repressor L1-07
B2: L1-38: library L1 hit, sulfonylurea-responsive TetR(B) variant (protein)
chain: MGSRLDKSKVINSALELLNEVGIEGLTTRKLAQKLGVEQPTLYWHVKNKRALLDALAIEMADRHHTHFCPLEGESWQDFLRNNAKSMRCALLSHRDGAKVWLGTAWTEKQYETTENMLAFLCQQGFSLENALYAWRAVTMFTLGCVLRDQEWQVAKEERETPTTDSMPPLLRQALELGDHQGAEPAFLFGLELIICGLEKQLKCESGS
modifications: Sulfonylurea responsive repressor L1-38
B3: L1-44: library L1 hit, sulfonylurea-responsive TetR(B) variant, SEQ ID NO: 13 (protein)
chain: MGSRLDKSKVINSALELLNEVGIEGLTTRKLAQKLGVEQPTLYWHVKNKRALLDALAIEMLDRHATHFCPLEGESWQDFLRNNAKSYRCALLSHRDGAKVYLGTAVTEKQYETAENQLAFLCQQGFSLENALYAVKAVAGFTLGCVLWDQESQVAKEERETPTTASMPPLLRQAVELADHQGAEPAFLFGLELIICGLEKQLKCESGS
modifications: Sulfonylurea responsive repressor L1-44
B4: L1-22: library L1 hit, sulfonylurea-responsive TetR(B) variant, SEQ ID NO: 7 (protein)
chain: MGSRLDKSKVINSALELLNEVGIEGLTTRKLAQKLGVEQPTLYWHVKNKRALLDALAIEMMDRHHTHFCPLEGESWQDFLRNTAKSYRCALLSHRDGAKVCLGTAITEKQYETKENNLAFLCQQGFSLENALYARQAVRVFTLGCVLFDQEMQVAKEERETPTTDSMPPLLRQASELLDHQGAEPAFLFGLELIICGLEKQLKSESGS
modifications: Sulfornylurea responsive repressor L1-22
B5: L1-39: library L1 reverse repressor hit (SEQ ID NO: 1206-1213) (protein)
chain: MGSRLDKSKVINSALELLNEVGIEGLTTRKLAQKLGVEQPTLYWHVKNKRALLDALAIEMMDRHQTHFCPLEGESWQDFLRNTAKSYRCALLSHRDGAKVILGTRWTEKQYETRENVLAFLCQQGFSLENALYAWAAVGPFTLGCVLRDQERQVAKEERETPTTDSMPPLLRQALELMDHQGAEPAFLFGLELIICGLEKQLKCESGS
modifications: rSuR L1-39
B6: L1-36: library L1 reverse repressor hit (SEQ ID NO: 1206-1213) (protein)
chain: MGSRLDKSKVINSALELLNEVGIEGLTTRKLAQKLGVEQPTLYWHVKNKRALLDALAIEMADRHHTHFCPLEGESWQDFLRNAAKSMRCALLSHRDGAKVRLGTAWTEKQYETHENVLAFLCQQGFSLENALYALKAVSGFTLGCVLKDQEMQVAKEERETPTTDSMPPLLRQATELVDHQGAEPAFLFGLELIICGLEKQLKCESGS
modifications: rSuR L1-36
B7: L1-41: library L1 reverse repressor hit (SEQ ID NO: 1206-1213) (protein)
chain: MGSRLDKSKVINSALELLNEVGIEGLTTRKLAQKLGVEQPTLYWHVKNKRALLDALAIEMLDRNQTHFCPLEGESWQDFLRNNAKSWRCALLSHRDGAKVMLGTRNTEKQYETAENGLAFLCQQGFSLENALYACRAVWTFTLGCVLDDQETQVAKEERETPTSDSMPPLLRQAMELKDHQGAEPAFLFGLELIICGLEKQLKCESGS
modifications: rSuR L1-41

One data set deals with tetA promoter (PtetA)-lacZ reporter in E. coli KM3. The format is cell-based. To be noted: Table 4; anhydrotetracycline 0.4 μM; 48 hrs at 30° C.
Take B1: the “relative β-galactosidase activity, inducer atc” value was found to be 0.0.

For the molecule B2, the “relative β-galactosidase activity, inducer atc” value was 6.4.

B3: the “relative β-galactosidase activity, inducer atc” value is reported as 0.2.

On to B4, for which the “relative β-galactosidase activity, inducer atc” value was found to be 0.0.

The same data set, now with this note: Table 4; chlorimuron 20 μg/ml (20 ppm); 48 hrs at 30° C.
In the case of B1, the “relative β-galactosidase activity, inducer Ci” value was found to be 16.5.

Turning to B2, the “relative β-galactosidase activity, inducer Ci” value is reported as 15.3.

For the molecule B3, the “relative β-galactosidase activity, inducer Ci” value is recorded as 6.7.

As to B4, the “relative β-galactosidase activity, inducer Ci” value came out at 10.4.

Still in this data set, the particulars now being: Table 4; chlorsulfuron 20 μg/ml (20 ppm); 48 hrs at 30° C.
With B1, the “relative β-galactosidase activity, inducer Cs” value was 3.1.

For B2, the “relative β-galactosidase activity, inducer Cs” value amounted to 14.0.

Take B4: the “relative β-galactosidase activity, inducer Cs” value stood at 0.2.

Staying with this data set, now noted: Table 4; ethametsulfuron 20 μg/ml (20 ppm); 48 hrs at 30° C.
As for B1, the “relative β-galactosidase activity, inducer Es” value is reported as 0.1.

In the case of B2, the “relative β-galactosidase activity, inducer Es” value amounted to 14.8.

Regarding B4, the “relative β-galactosidase activity, inducer Es” value came to 0.3.

Still in this data set, the particulars now being: Table 4; metsulfuron 20 μg/ml (20 ppm); 48 hrs at 30° C.
As to B1, the “relative β-galactosidase activity, inducer Ms” value worked out at 0.2.

Take B2: the “relative β-galactosidase activity, inducer Ms” value is 14.7.

For the molecule B4, the “relative β-galactosidase activity, inducer Ms” value is listed as 0.1.

The same data set, now with this note: Table 4; nicosulfuron 20 μg/ml (20 ppm); 48 hrs at 30° C.
For the molecule B1, the “relative β-galactosidase activity, inducer Ns” value worked out at 0.1.

Take B2: the “relative β-galactosidase activity, inducer Ns” value worked out at 8.7.

For the molecule B3, the “relative β-galactosidase activity, inducer Ns” value is given as 0.4.

With B4, the “relative β-galactosidase activity, inducer Ns” value was 0.2.

The same data set, now with this note: Table 4; no inducer; 48 hrs at 30° C.
Take B1: the “relative β-galactosidase activity, inducer None” value was found to be 0.0.

Take B2: the “relative β-galactosidase activity, inducer None” value was determined as 9.5.

Regarding B3, the “relative β-galactosidase activity, inducer None” value came out at 0.2.

In the case of B4, the “relative β-galactosidase activity, inducer None” value worked out at 0.1.

Still in this data set, the particulars now being: Table 4; rimsulfuron 20 μg/ml (20 ppm); 48 hrs at 30° C.
Regarding B1, the “relative β-galactosidase activity, inducer Rs” value is given as 0.2.

As to B2, the “relative β-galactosidase activity, inducer Rs” value was 9.5.

As to B3, the “relative β-galactosidase activity, inducer Rs” value is listed as 0.3.

Regarding B4, the “relative β-galactosidase activity, inducer Rs” value stood at 0.1.

Still in this data set, the particulars now being: Table 4; sulfometuron 20 μg/ml (20 ppm); 48 hrs at 30° C.
On to B1, for which the “relative β-galactosidase activity, inducer Sm” value turned out to be 6.4.

For B2, the “relative β-galactosidase activity, inducer Sm” value was 18.3.

Regarding B3, the “relative β-galactosidase activity, inducer Sm” value is given as 0.4.

Staying with this data set, now noted: Table 4; thifensulfuron 20 μg/ml (20 ppm); 48 hrs at 30° C.
As for B1, the “relative β-galactosidase activity, inducer Ts” value is recorded as 0.1.

As for B2, the “relative β-galactosidase activity, inducer Ts” value is 16.7.

Turning to B3, the “relative β-galactosidase activity, inducer Ts” value is 1.9.

With B4, the “relative β-galactosidase activity, inducer Ts” value was determined as 0.0.

Still in this data set, the particulars now being: Table 4; tribenuron 20 μg/ml (20 ppm); 48 hrs at 30° C.
On to B1, for which the “relative β-galactosidase activity, inducer Tb” value is 0.2.

For the molecule B2, the “relative β-galactosidase activity, inducer Tb” value came to 15.8.

As to B3, the “relative β-galactosidase activity, inducer Tb” value is reported as 0.4.

Regarding B4, the “relative β-galactosidase activity, inducer Tb” value was 0.3.

Staying with this data set, now noted: Table 6, reverse repressor hits; anhydrotetracycline.
Turning to B5, the “relative β-galactosidase activity, inducer atc” value is listed as 4.92.

Turning to B6, the “relative β-galactosidase activity, inducer atc” value is on record as 1.70.

Regarding B7, the “relative β-galactosidase activity, inducer atc” value is 4.21.

The same data set, now with this note: Table 6, reverse repressor hits; chlorimuron, same plate assay format as Table 4.
Regarding B5, the “relative β-galactosidase activity, inducer Ci” value is recorded as 0.49.

On to B6, for which the “relative β-galactosidase activity, inducer Ci” value worked out at 0.21.

Take B7: the “relative β-galactosidase activity, inducer Ci” value is listed as 0.39.

Still in this data set, the particulars now being: Table 6, reverse repressor hits; chlorsulfuron, same plate assay format as Table 4.
Regarding B5, the “relative β-galactosidase activity, inducer Cs” value is reported as 0.89.

Turning to B6, the “relative β-galactosidase activity, inducer Cs” value is on record as 0.24.

Consider B7, for which the “relative β-galactosidase activity, inducer Cs” value is 0.61.

Staying with this data set, now noted: Table 6, reverse repressor hits; ethametsulfuron, same plate assay format as Table 4.
With B5, the “relative β-galactosidase activity, inducer Es” value is 0.60.

For B6, the “relative β-galactosidase activity, inducer Es” value is 0.20.

As for B7, the “relative β-galactosidase activity, inducer Es” value came out at 0.18.

The same data set, now with this note: Table 6, reverse repressor hits; metsulfuron, same plate assay format as Table 4.
As to B5, the “relative β-galactosidase activity, inducer Ms” value is 0.75.

On to B6, for which the “relative β-galactosidase activity, inducer Ms” value came to 0.38.

Take B7: the “relative β-galactosidase activity, inducer Ms” value worked out at 0.56.

Still in this data set, the particulars now being: Table 6, reverse repressor hits; nicosulfuron, same plate assay format as Table 4.
For B5, the “relative β-galactosidase activity, inducer Ns” value is 3.03.

Take B6: the “relative β-galactosidase activity, inducer Ns” value amounted to 1.81.

Turning to B7, the “relative β-galactosidase activity, inducer Ns” value was found to be 2.75.

The same data set, now with this note: Table 6, reverse repressor hits; no inducer.
Consider B5, for which the “relative β-galactosidase activity, inducer Blank” value came out at 3.65.

Consider B6, for which the “relative β-galactosidase activity, inducer Blank” value is on record as 1.52.

For B7, the “relative β-galactosidase activity, inducer Blank” value is reported as 4.05.

The same data set, now with this note: Table 6, reverse repressor hits; rimsulfuron, same plate assay format as Table 4.
As for B5, the “relative β-galactosidase activity, inducer Rs” value stood at 4.72.

For B6, the “relative β-galactosidase activity, inducer Rs” value is recorded as 1.84.

In the case of B7, the “relative β-galactosidase activity, inducer Rs” value is recorded as 4.05.

The same data set, now with this note: Table 6, reverse repressor hits; sulfometuron, same plate assay format as Table 4.
Take B5: the “relative β-galactosidase activity, inducer Sm” value is 0.91.

For the molecule B6, the “relative β-galactosidase activity, inducer Sm” value stood at 0.50.

B7: the “relative β-galactosidase activity, inducer Sm” value is 0.67.

Staying with this data set, now noted: Table 6, reverse repressor hits; thifensulfuron, same plate assay format as Table 4.
On to B5, for which the “relative β-galactosidase activity, inducer Ts” value turned out to be 1.42.

On to B6, for which the “relative β-galactosidase activity, inducer Ts” value is 0.48.

For B7, the “relative β-galactosidase activity, inducer Ts” value is 1.46.

The same data set, now with this note: Table 6, reverse repressor hits; tribenuron, same plate assay format as Table 4.
As for B5, the “relative β-galactosidase activity, inducer Tb” value is 0.97.

Take B6: the “relative β-galactosidase activity, inducer Tb” value stood at 0.57.

For the molecule B7, the “relative β-galactosidase activity, inducer Tb” value worked out at 1.41.

Staying with this data set, now noted: Table 8; inducers given as numbers without key.
B3: the Inducer preference is listed as 9 (weak).

As for B4, the Inducer preference is 3.

Staying with this data set, now noted: Table 10; chlorsulfuron 2 ppm; 48 hours at 30° C.
B3: the “relative β-galactosidase activity, inducer Cs” value was determined as 1.9.

Regarding B4, the “relative β-galactosidase activity, inducer Cs” value was 0.2.

Staying with this data set, now noted: Table 10; ethametsulfuron 2 ppm; 48 hours at 30° C.
B3: the “relative β-galactosidase activity, inducer Es” value is 1.0.

Regarding B4, the “relative β-galactosidase activity, inducer Es” value amounted to 0.2.

Still in this data set, the particulars now being: Table 10; metsulfuron 2 ppm; 48 hours at 30° C.
On to B3, for which the “relative β-galactosidase activity, inducer Ms” value is 0.5.

With B4, the “relative β-galactosidase activity, inducer Ms” value turned out to be 0.2.

The same data set, now with this note: Table 10; no inducer; 48 hours at 30° C.
On to B3, for which the “relative β-galactosidase activity, No inducer” value was found to be 0.6.

As for B4, the “relative β-galactosidase activity, No inducer” value is listed as 0.2.

The data set is the same for the next values; noted with them: Table 10; sulfometuron 2 ppm; 48 hours at 30° C.
On to B3, for which the “relative β-galactosidase activity, inducer Sm” value was determined as 0.6.

As for B4, the “relative β-galactosidase activity, inducer Sm” value was 1.8.
